Data from article PMC7210009.
Like-named read-outs stand apart in the source and are kept apart here.

With “PFKP (phosphofructokinase, platelet isoform): S386A” the degradation_or_half_life (phosphorylation at S386) was “no change”.

With “PFKL (phosphofructokinase, liver isoform): K272R” the degradation_or_half_life (ubiquitination at K272) was “decreases”.

For “PFKP (phosphofructokinase, platelet isoform): K281R”, the degradation_or_half_life (ubiquitination at K281) was “decreases”.

In the case of “PFKP (phosphofructokinase, platelet isoform): AKT inhibitor X (10 μM, 15 hrs)”, the expression_or_secretion (phosphorylation at S386) is reported as “no change”.
